Assay results published in patent publication US20250282866A1 (VIGIL NEUROSCIENCE, published 2025).

T1: human TREM2 (human, UniProt Q9NZC2 19-174, limits assumed)
T1 construct: also called triggering receptor expressed on myeloid cells 2
T1 sequence: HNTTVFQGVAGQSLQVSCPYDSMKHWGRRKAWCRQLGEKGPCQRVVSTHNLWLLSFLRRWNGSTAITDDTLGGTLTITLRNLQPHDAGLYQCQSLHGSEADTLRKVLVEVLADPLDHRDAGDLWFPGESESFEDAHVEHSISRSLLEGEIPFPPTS


Key:
[1] = target: T1, human TREM2; experiment: 1st screen (110 nM or 10 nM)
[2] = target: T1, human TREM2; experiment: 2nd screen 100 nM

Binding Signal (fold over 6E7 Parental antibody) [1] [fold] | Binding Signal (fold over 6E7 Parental antibody) [2] [fold] | Binder
0.2 | 0.56 | V6 (antibody, V domains shown) VH: EVQLVQSGAEVKKPGESLKISCKGSGYSFTSMWIAWVRQMPGKGLEWMGIIYPGDSDTRYSPSFQGQVTISADKSISTAYLQWSSLKASDTAMYFCARQRTFYYDSSDYFDYWGQGTLVTVSS VL: DIQMTQSPSSVSASVGDRVTITCRASQGISSWLAWYQQKPGKAPKLLIYAASSLQNGVPSRFSGSGSGTDFTLTISSLQPEDFATYFCQQADSFPRTFGQGTKLEIK
0.2 | 0.33 | V43 (antibody, V domains shown) VH: EVQLVQSGAEVKKPGESLKISCKGSGYSFTSYWIAWVRQMPGKGLEWMGIIYPGDSGTRYSPSFQGQVTISADKSISTAYLQWSSLKASDTAMYFCARQRTFYYDSSDYFDYWGQGTLVTVSS VL: DIQMTQSPSSVSASVGDRVTITCRASQGISSWLAWYQQKPGKAPKLLIYAASSLQNGVPSRFSGSGSGTDFTLTISSLQPEDFATYFCQQADSFPRTFGQGTKLEIK
0.59 | 0.48 | V19 (antibody, V domains shown) VH: EVQLVQSGAEVKKPGESLKISCKGSGYSFTSSWIAWVRQMPGKGLEWMGIIYPGDSDTRYSPSFQGQVTISADKSISTAYLQWSSLKASDTAMYFCARQRTFYYDSSDYFDYWGQGTLVTVSS VL: DIQMTQSPSSVSASVGDRVTITCRASQGISSWLAWYQQKPGKAPKLLIYAASSLQNGVPSRFSGSGSGTDFTLTISSLQPEDFATYFCQQADSFPRTFGQGTKLEIK
0.23 | 0.34 | V33 (antibody, V domains shown) VH: EVQLVQSGAEVKKPGESLKISCKGSGYSFTSYWIAWVRQMPGKGLEWMGIIYPGDSDTRYSPSFQGQVTISADKSISTAYLQWSSLKASDTAMYFCARQRTFYGDSSDYFDYWGQGTLVTVSS VL: DIQMTQSPSSVSASVGDRVTITCRASQGISSWLAWYQQKPGKAPKLLIYAASSLQNGVPSRFSGSGSGTDFTLTISSLQPEDFATYFCQQADSFPRTFGQGTKLEIK
0.82 | 0.89 | V32 (antibody, V domains shown) VH: EVQLVQSGAEVKKPGESLKISCKGSGYSFTSYWIAWVRQMPGKGLEWMGIIYPGDSDTRYSNSFQGQVTISADKSISTAYLQWSSLKASDTAMYFCARQRTFYYDSSDYFDYWGQGTLVTVSS VL: DIQMTQSPSSVSASVGDRVTITCRASQGISSWLAWYQQKPGKAPKLLIYAASSLQNGVPSRFSGSGSGTDFTLTISSLQPEDFATYFCQQADSFPRTFGQGTKLEIK
0.21 | 0.29 | V35 (antibody, V domains shown) VH: EVQLVQSGAEVKKPGESLKISCKGSGYSFTSYWIAWVRQMPGKGLEWMGIIYPGDSDTRYSPSFQGQVTISADKSISTAYLQWSSLKASDTAMYFCARQRTFYYDSSDYFDYWGQGTLVTVSS VL: DIQMTQSPSSVSASVGDRVTITCRASQGISSWLAWYQQKPGKAPKLLIYAASSLQNGVPSRFSGSGSGTDFTLTISSLQPEDFATYFCQQAYSFPRTFGQGTKLEIK
0.67 | 0.54 | V9 (antibody, V domains shown) VH: EVQLVQSGAEVKKPGESLKISCKGSGYSFTSYWIAWVRQMPGKGLEWMGIIYPGDSDTRYSPSFQGQVTISADKSISTAYLQWSSLKASDTAMYFCARQRGFYYDSSDYFDYWGQGTLVTVSS VL: DIQMTQSPSSVSASVGDRVTITCRASQGISSWLAWYQQKPGKAPKLLIYAASSLQNGVPSRFSGSGSGTDFTLTISSLQPEDFATYFCQQADSFPRTFGQGTKLEIK
0.76 | 0.7 | V10 (antibody, V domains shown) VH: EVQLVQSGAEVKKPGESLKISCKGSGYSFTSYWIAWVRQMPGKGLEWMGIIYPGDSDTRYSPSFQGQVTISADKSISTAYLQWSSLKASDTAMYFCARQRTFYYDSSDYFDYWGQGTLVTVSS VL: DIQMTQSPSSVSASVGDRVTITCRASQGISSWLAWYQQKPGKAPKLLIYSASSLQNGVPSRFSGSGSGTDFTLTISSLQPEDFATYFCQQADSFPRTFGQGTKLEIK
0.79 | 0.42 | V11 (antibody, V domains shown) VH: EVQLVQSGAEVKKPGESLKISCKGSGYSFTSYWIAWVRQMPGKGLEWMGIIYPGDSDTRYSPSFQGQVTISADKSISTAYLQWSSLKASDTAMYFCARQRTFYYDSSDYFDYWGQGTLVTVSS VL: DIQMTQSPSSVSASVGDRVTITCRASQGISSWLAWYQQKPGKAPKLLIYAASSLQNGVPSRFSGSGSGTDFTLTISSLQPEDFATYFCQQAASFPRTFGQGTKLEIK
0.4 | 0.4 | V23 (antibody, V domains shown) VH: EVQLVQSGAEVKKPGESLKISCKGSGYSFTSYWIAWVRQMPGKGLEWMGIIYPGDSDTRYSPSFQGQVTISADKSISTAYLQWSSLKASDTAMYFCARQRTFYYDSSDYFDYWGQGTLVTVSS VL: DIQMTQSPSSVSASVGDRVTITCRASQGISSWLAWYQQKPGKAPKLLIYAASSLQNGVPSRFSGSGSGTDFTLTISSLQPEDFATYFCQQADSFPLTFGQGTKLEIK
0.79 | 0.72 | V30 (antibody, V domains shown) VH: EVQLVQSGAEVKKPGESLKISCKGSGSSFTSYWIAWVRQMPGKGLEWMGIIYPGDSDTRYSPSFQGQVTISADKSISTAYLQWSSLKASDTAMYFCARQRTFYYDSSDYFDYWGQGTLVTVSS VL: DIQMTQSPSSVSASVGDRVTITCRASQGISSWLAWYQQKPGKAPKLLIYAASSLQNGVPSRFSGSGSGTDFTLTISSLQPEDFATYFCQQADSFPRTFGQGTKLEIK
0.34 | 1.02 | V34 (antibody, V domains shown) VH: EVQLVQSGAEVKKPGESLKISCKGSGYSFTSYWIAWVRQMPGKGLEWMGIIYPGDSDTRYSPSFQGQVTISADKSISTAYLQWSSLKASDTAMYFCARQRTFYYDSSDYFDYWGQGTLVTVSS VL: DIQMTQSPSSVSASVGDRVTITCRASQGISSWLAWYQQKPGKAPKLLIYAASSLQDGVPSRFSGSGSGTDFTLTISSLQPEDFATYFCQQADSFPRTFGQGTKLEIK
0.17 | 0.42 | V18 (antibody, V domains shown) VH: EVQLVQSGAEVKKPGESLKISCKGSGYSFTSYHIAWVRQMPGKGLEWMGIIYPGDSDTRYSPSFQGQVTISADKSISTAYLQWSSLKASDTAMYFCARQRTFYYDSSDYFDYWGQGTLVTVSS VL: DIQMTQSPSSVSASVGDRVTITCRASQGISSWLAWYQQKPGKAPKLLIYAASSLQNGVPSRFSGSGSGTDFTLTISSLQPEDFATYFCQQADSFPRTFGQGTKLEIK
0.45 | 0.41 | V42 (antibody, V domains shown) VH: EVQLVQSGAEVKKPGESLKISCKGSGYSFTSAWIAWVRQMPGKGLEWMGIIYPGDSDTRYSPSFQGQVTISADKSISTAYLQWSSLKASDTAMYFCARQRTFYYDSSDYFDYWGQGTLVTVSS VL: DIQMTQSPSSVSASVGDRVTITCRASQGISSWLAWYQQKPGKAPKLLIYAASSLQNGVPSRFSGSGSGTDFTLTISSLQPEDFATYFCQQADSFPRTFGQGTKLEIK
0.28 | 0.77 | V8 (antibody, V domains shown) VH: EVQLVQSGAEVKKPGESLKISCKGSGYSFTSYWIAWVRQMPGKGLEWMGIIYPGDSDTKYSPSFQGQVTISADKSISTAYLQWSSLKASDTAMYFCARQRTFYYDSSDYFDYWGQGTLVTVSS VL: DIQMTQSPSSVSASVGDRVTITCRASQGISSWLAWYQQKPGKAPKLLIYAASSLQNGVPSRFSGSGSGTDFTLTISSLQPEDFATYFCQQADSFPRTFGQGTKLEIK
0.3 | 0.71 | V22 (antibody, V domains shown) VH: EVQLVQSGAEVKKPGESLKISCKGSGYSFTSYWIAWVRQMPGKGLEWMGIIYPGDSDTRYSPSFQGQVTISADKSISTAYLQWSSLKASDTAMYFCARQRTFYYDSSDYFDYWGQGTLVTVSS VL: DIQMTQSPSSVSASVGDRVTITCRASQGISSWLAWYQQKPGKAPKLLIYRASSLQNGVPSRFSGSGSGTDFTLTISSLQPEDFATYFCQQADSFPRTFGQGTKLEIK
0.18 | 0.52 | V20 (antibody, V domains shown) VH: EVQLVQSGAEVKKPGESLKISCKGSGYSFTSYWIAWVRQMPGKGLEWMGRIYPGDSDTRYSPSFQGQVTISADKSISTAYLQWSSLKASDTAMYFCARQRTFYYDSSDYFDYWGQGTLVTVSS VL: DIQMTQSPSSVSASVGDRVTITCRASQGISSWLAWYQQKPGKAPKLLIYAASSLQNGVPSRFSGSGSGTDFTLTISSLQPEDFATYFCQQADSFPRTFGQGTKLEIK
0.11 | 0.32 | V7 (antibody, V domains shown) VH: EVQLVQSGAEVKKPGESLKISCKGSGYSFTSEWIAWVRQMPGKGLEWMGIIYPGDSDTRYSPSFQGQVTISADKSISTAYLQWSSLKASDTAMYFCARQRTFYYDSSDYFDYWGQGTLVTVSS VL: DIQMTQSPSSVSASVGDRVTITCRASQGISSWLAWYQQKPGKAPKLLIYAASSLQNGVPSRFSGSGSGTDFTLTISSLQPEDFATYFCQQADSFPRTFGQGTKLEIK
0.76 | 0.68 | V21 (antibody, V domains shown) VH: EVQLVQSGAEVKKPGESLKISCKGSGYSFTSYWIAWVRQMPGKGLEWMGIIYPGDSDTRYSPSFQGQVTISADKSISTAYLQWSSLKASDTAMYFCARQRTFYYDSSDFFDYWGQGTLVTVSS VL: DIQMTQSPSSVSASVGDRVTITCRASQGISSWLAWYQQKPGKAPKLLIYAASSLQNGVPSRFSGSGSGTDFTLTISSLQPEDFATYFCQQADSFPRTFGQGTKLEIK
